Source: patent publication US20240317847A1 (Bayer, published 2024)
Numbering of substitutions follows the chain as printed. Numbers in names are those of the source.

T1: murine IL-11 (mouse, UniProt P47873 22-199)
T1 construct: bought from Invigate; also called mIL-11; mIL11
T1 sequence: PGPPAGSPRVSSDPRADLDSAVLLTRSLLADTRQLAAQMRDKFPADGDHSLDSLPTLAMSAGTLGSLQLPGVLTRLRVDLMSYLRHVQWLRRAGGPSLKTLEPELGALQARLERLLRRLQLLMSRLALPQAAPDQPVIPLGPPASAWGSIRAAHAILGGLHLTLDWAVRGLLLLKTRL

T2: human IL-11 (human, UniProt P20809 22-199)
T2 construct: bought from Invigate; also called hIL-11; hIL11
T2 sequence: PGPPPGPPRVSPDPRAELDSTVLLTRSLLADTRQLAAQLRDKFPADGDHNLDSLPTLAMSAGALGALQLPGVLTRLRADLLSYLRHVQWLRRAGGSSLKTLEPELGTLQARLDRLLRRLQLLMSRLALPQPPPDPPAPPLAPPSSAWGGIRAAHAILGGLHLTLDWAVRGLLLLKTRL

T3: human IL-11 (Invigate, e.g., lot #C121021-19) (human, UniProt P20809 22-199)
T3 construct: Bought protein; also called hIL-11; hIL11
T3 sequence: T2 sequence

T4: murine IL-11 (Invigate, e.g., lot #C210819-09) (mouse, UniProt P47873 22-199)
T4 construct: Bought protein; biotinylated where captured on streptavidin plates; also called mIL-11; mIL11
T4 sequence: T1 sequence

B1: TPP-19841 (antibody, V domains shown)
VH: EVQLLESGGGLVQPGGSLRLSCAASGFTFSSYGMHWVRQAPGKGLEWVSVISYDGSYKYYADSVKGRFTISRDNSKNTLYLQMNSLRAEDTAVYYCAAGVPDYWGQGTLVTVSS
VL: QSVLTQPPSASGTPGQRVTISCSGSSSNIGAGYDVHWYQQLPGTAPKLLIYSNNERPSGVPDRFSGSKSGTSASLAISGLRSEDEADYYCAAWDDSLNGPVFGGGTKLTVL
B2: TPP-19842 (antibody, V domains shown)
VH: B1 VH
VL: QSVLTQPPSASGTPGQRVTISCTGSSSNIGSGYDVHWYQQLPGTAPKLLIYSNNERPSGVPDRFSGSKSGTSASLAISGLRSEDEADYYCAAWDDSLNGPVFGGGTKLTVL
B3: TPP-19843 (antibody, V domains shown)
VH: B1 VH
VL: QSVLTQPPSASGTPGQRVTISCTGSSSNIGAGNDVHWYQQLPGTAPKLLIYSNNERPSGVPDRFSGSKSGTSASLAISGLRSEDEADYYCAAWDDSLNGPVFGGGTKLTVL
B4: TPP-19845 (antibody, V domains shown)
VH: B1 VH
VL: QSVLTQPPSASGTPGQRVTISCTGSSSNIGAGYDVYWYQQLPGTAPKLLIYSNNERPSGVPDRFSGSKSGTSASLAISGLRSEDEADYYCAAWDDSLNGPVFGGGTKLTVL
B5: TPP-19847 (antibody, V domains shown)
VH: B1 VH
VL: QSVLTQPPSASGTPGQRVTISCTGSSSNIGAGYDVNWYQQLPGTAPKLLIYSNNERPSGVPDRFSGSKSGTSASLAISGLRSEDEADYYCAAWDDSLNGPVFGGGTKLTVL
B6: TPP-19848 (antibody, V domains shown)
VH: B1 VH
VL: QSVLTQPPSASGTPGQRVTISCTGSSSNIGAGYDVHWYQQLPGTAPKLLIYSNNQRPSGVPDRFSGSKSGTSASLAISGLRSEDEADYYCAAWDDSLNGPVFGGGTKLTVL
B7: TPP-19849 (antibody, V domains shown)
VH: B1 VH
VL: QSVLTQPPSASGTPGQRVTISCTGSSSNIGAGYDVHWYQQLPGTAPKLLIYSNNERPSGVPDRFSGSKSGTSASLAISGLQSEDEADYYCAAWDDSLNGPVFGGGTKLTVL
B8: TPP-19850 (antibody, V domains shown)
VH: B1 VH
VL: B4 VL with Y36H, N98S
B9: TPP-19861 (antibody, V domains shown)
VH: B1 VH with G33A
VL: B4 VL with Y36H
B10: TPP-19862 (antibody, V domains shown)
VH: B1 VH with H35S
VL: B4 VL with Y36H
B11: TPP-19863 (antibody, V domains shown)
VH: B1 VH with V50A
VL: B4 VL with Y36H
B12: TPP-19864 (antibody, V domains shown)
VH: B1 VH with Y53G
VL: B4 VL with Y36H
B13: TPP-19865 (antibody, V domains shown)
VH: B1 VH with D54S
VL: B4 VL with Y36H
B14: TPP-19866 (antibody, V domains shown)
VH: B1 VH with S56G
VL: B4 VL with Y36H
B15: TPP-31295 (antibody, human IgG4, V domains shown)
VH: EVQLLESGGGLVQPGGSLRLSCAASGFTFSHYDMNWLRQAPGKGLEWVGVISYDGSNKYYADFVKGRFTISRDNSKNTLYLQMNSLRAEDTAVYYCARTPGSHFDYWGQGTLVTVSS
VL: QSVLTQPPSASGTPGQRVTISCSGSSSNIGNNAVNWYQQLPGTAPKLLIYYDDLLPSGVPDRFSGSKSGTSASLAISGLRSEDEADYYCSAWDDSLNGVVFGGGTKLTVL
notes: consecutive numbering; also called VH-F59Y
B16: TPP-31296 (antibody, human IgG4, V domains shown)
VH: B15 VH with Y59F, F63S
VL: B15 VL
notes: consecutive numbering; also called VH-F63S
B17: TPP-31297 (antibody, human IgG4, V domains shown)
VH: B15 VH with Y59F
VL: B15 VL with N97Q
notes: consecutive numbering; also called VL-N97Q
B18: TPP-31298 (antibody, human IgG4, V domains shown)
VH: B15 VH with Y59F
VL: B15 VL with N97S
notes: consecutive numbering; also called VL-N97S
B19: TPP-31299 (antibody, human IgG4, V domains shown)
VH: B15 VH with Y59F
VL: B15 VL with G98A
notes: consecutive numbering; also called VL-G98A
B20: TPP-31300 (antibody, human IgG4, V domains shown)
VH: B15 VH with D54E, Y59F
VL: B15 VL
notes: consecutive numbering; also called VH-D54E
B21: TPP-31301 (antibody, human IgG4, V domains shown)
VH: B15 VH with D54E, Y59F
VL: B15 VL with N97Q
notes: consecutive numbering; also called VH-D54E / VL-N97Q
B22: TPP-31302 (antibody, human IgG4, V domains shown)
VH: B15 VH with D54E, Y59F
VL: B15 VL with N97S
notes: consecutive numbering; also called VH-D54E/VL-N97S
B23: TPP-31303 (antibody, human IgG4, V domains shown)
VH: B15 VH with D54E, Y59F
VL: B15 VL with G98A
notes: consecutive numbering; also called VH-D54E / VL-G98A
B24: TPP-31304 (antibody, human IgG4, V domains shown)
VH: B15 VH with G55A, Y59F
VL: B15 VL
notes: consecutive numbering; also called VH-G55A
B25: TPP-31305 (antibody, human IgG4, V domains shown)
VH: B15 VH with G55A, Y59F
VL: B15 VL with N97Q
notes: consecutive numbering; also called VH-G55A / VL-N97Q
B26: TPP-31306 (antibody, human IgG4, V domains shown)
VH: B15 VH with G55A, Y59F
VL: B15 VL with N97S
notes: consecutive numbering; also called VH-G55A / VL-N97S
B27: TPP-31307 (antibody, human IgG4, V domains shown)
VH: B15 VH with G55A, Y59F
VL: B15 VL with G98A
notes: consecutive numbering; also called VH-G55A / VL-G98A
B28: TPP-31308 (antibody, human IgG4, V domains shown)
VH: B15 VH with G55S, Y59F
VL: B15 VL
notes: consecutive numbering; also called VH-G55S
B29: TPP-31309 (antibody, human IgG4, V domains shown)
VH: B15 VH with G55S, Y59F
VL: B15 VL with N97Q
notes: consecutive numbering; also called VH-G55S / VL-N97Q
B30: TPP-31310 (antibody, human IgG4, V domains shown)
VH: B15 VH with G55S, Y59F
VL: B15 VL with N97S
notes: consecutive numbering; also called VH-G55S / VL-N97S
B31: TPP-31311 (antibody, human IgG4, V domains shown)
VH: B15 VH with G55S, Y59F
VL: B15 VL with G98A
notes: consecutive numbering; also called VH-G55S / VL-G98A

Columns and labels:
murine IL-11 = target: T1, murine IL-11; assay: SPR, antibody captured, IL-11 as analyte
Description: (§1) Antibodies were captured via anti-mouse Fc IgGs (“Mouse antibody capture kit, Order No. BR100383, Cytiva) covalently amine coupled to a Series S CM5 sensor chip (Cytiva). The amine coupling was carried out according to the manufacturer's instructions using 1-ethyl-3-(3-dimethylaminopropyl) carbodiimide hydrochloride (EDC), N-hydroxysuccinimide (NHS) and ethanolamine HCl, pH 8.5 (“Amine Coupling Kit” BR-1000-50, Cytiva.). Human IL-11 (Invigate, e.g., lot #C121021-19), and murine IL-11 (Invigate, e.g., lot #C210819-09) were used as analytes. […] Based on that experiment an IL-11 concentration range was chosen to optimally determine kinetics and affinity of anti-IL-11 antibodies in multicycle kinetics mode. The sensor surface was regenerated with glycine pH 1.7 after each antigen injection. Obtained sensorgrams were double referenced (subtraction of reference flow cell signal and buffer injection) and were fitted to a 1:1 Langmuir binding model to derive kinetic data using the Biacore T200 Evaluation software or the Biacore Insight software.
(§2) Deviations from closest human germlines in CDR regions and FW regions and potential CMC relevant residues in CDR regions were adjusted by site directed mutagenesis following standard molecular protocols or purchased from DNA synthesis providers. The generated DNA constructs were expressed by transient transfection of mammalian cells and purified as described in Example 15. Antibodies were then tested for human IL-11 and murine IL-11 binding by SPR as described in Example 16.

human IL-11 = target: T2, human IL-11; assay: SPR, antibody captured, IL-11 as analyte
Description: as §1, §2

[1] = target: T3, human IL-11 (Invigate, e.g., lot …); assay: SPR, Biacore 8K; antibody captured on anti-human IgG Fc chip, IL-11 analyte 0-50 nM, 1:1 fit
Description: (§3) Antibody binding affinity to hIL-11 (Invigate, Germany, e.g., lot #C121021-19) and mIL-11 (Invigate, Germany, e.g., lot #C210819-09) was detected using Biacore 8K. Each antibody was captured on an anti-human IgG Fc antibody immobilized CM5 sensor chip (GE). hIL-11 and mIL-11 at different concentrations (0, 5, 15.82 and 50 nM) in 1×HBS-EP+ (pH 7.4) (GE healthcare) were injected over the sensor chip at a flow rate of 30 μL/min for an association phase of 120 s, followed by 200 s dissociation phase. The chip was then regenerated by 10 mM Glycine, pH 1.5 after each binding cycle.
(§4) The sensorgrams of blank surface and buffer channel were subtracted from the test sensorgrams. The experimental data was fitted by 1:1 model using Langmiur analysis. Molecular weight of 19.3 kDa was used to calculate the molar concentration of human and mouse IL-11.

[2] = target: T4, murine IL-11 (Invigate, e.g., lot …); assay: as above
Description: as §3, §4

Row | Binder | Kd (murine IL-11) | Kd (human IL-11) | binding result (murine IL-11) | Kd [1] | Kd [2]
1 | B1 | 0.79 nM | 6.3 nM | – | – | –
2 | B2 | 0.66 nM | 7.3 nM | – | – | –
3 | B3 | 7.5 nM | 17 nM | – | – | –
4 | B4 | 5 nM | 20 nM | – | – | –
5 | B5 | 2.1 nM | 9 nM | – | – | –
6 | B6 | 2.4 nM | 52 nM | – | – | –
7 | B7 | 0.68 nM | 5.9 nM | – | – | –
8 | B8 | 1.6 nM | 6.5 nM | – | – | –
9 | B9 | 28 nM | 17 nM | – | – | –
10 | B10 | 4.7 nM | 19 nM | – | – | –
11 | B11 | 0.64 nM | 4.7 nM | – | – | –
12 | B12 | – | 13 nM | no binding | – | –
13 | B13 | 3.6 nM | 25 nM | – | – | –
14 | B14 | 1.4 nM | 8.5 nM | – | – | –
15 | B15 | – | – | – | 20 nM | 33 nM
16 | B16 | – | – | – | 9.4 nM | 12 nM

Row | Binder | Kd (murine IL-11) | Kd (human IL-11) | binding result (murine IL-11) | Kd [1] | Kd [2]
17 | B17 | – | – | – | 8.7 nM | 14 nM
18 | B18 | – | – | – | 9.3 nM | 13 nM
19 | B19 | – | – | – | 18 nM | 16 nM
20 | B20 | – | – | – | 3.8 nM | 3 nM
21 | B21 | – | – | – | 3.6 nM | 2.9 nM
22 | B22 | – | – | – | 3.8 nM | 3.2 nM
23 | B23 | – | – | – | 6.9 nM | 3.6 nM
24 | B24 | – | – | – | 15 nM | 23 nM
25 | B25 | – | – | – | 15 nM | 25 nM
26 | B26 | – | – | – | 15 nM | 23 nM
27 | B27 | – | – | – | 31 nM | 28 nM
28 | B28 | – | – | – | 40 nM | 47 nM
29 | B29 | – | – | – | 41 nM | 53 nM
30 | B30 | – | – | – | 40 nM | 43 nM
31 | B31 | – | – | – | 87 nM | 58 nM
